Experimental data: PMC12562645, “Enhancement of Activity of Thermophilic Inorganic Pyrophosphatase Ton1914 via Site-Directed Mutagenesis” (Biomolecules, 2025)
Substitutions are numbered along the chain they refer to. Numbers in names are those of the source.

B1: Ton1914 (Thermococcus onnurineus NA1) (protein)
chain: MNPFHELEPGPEVPEVVYALIEIPKGSRNKYELDKKTGLLKLDRVLYSPFFYPVDYGIIPQTWYDDGDPFDIMVIMREPVYPLTIVEARPIGIMKMEDSGDKDWKVLAVPVEDPYFNDWKDIDDVPKAFLDEIAHFFQRYKELQGKVTTVEGWGTAEEAKREILRAIEMYKEKFGKKE
notes: pET28a-Ton1914 expressed in E. coli BL21(DE3); heat-treated (80 °C) supernatant concentrated by ultrafiltration
B2: Ton1914 (Thermococcus onnurineus NA1; D101K/L42F) (protein)
chain: B1 chain with L42F, D101K
notes: as for B1
B3: Ton1914 (Thermococcus onnurineus NA1; D101K/E97Y) (protein)
chain: B1 chain with E97Y, D101K
notes: as for B1
B4: Ton1914 (Thermococcus onnurineus NA1; L42F) (protein)
chain: B1 chain with L42F
notes: as for B1
B5: Ton1914 (Thermococcus onnurineus NA1; E97Y/L42F) (protein)
chain: B1 chain with L42F, E97Y
notes: as for B1
B6: Ton1914 (Thermococcus onnurineus NA1; D101K) (protein)
chain: B1 chain with D101K
notes: as for B1
B7: Ton1914 (Thermococcus onnurineus NA1; E97Y) (protein)
chain: B1 chain with E97Y
notes: as for B1

substrate: O=P(O)(O)OP(=O)(O)O; test: purified protein; assay type: biochemical, Thermococcus onnurineus; conditions: Mg2+, 90 °C, pH 9, pyrophosphate 0.05–1.0 mM, unit mM doubtful (M would fit the substrate range)

| Protein | Km |
| --- | --- |
| B1 | 3.03 ± 0.18 × 10^−4 mM |
| B2 | 6.34 ± 0.82 × 10^−4 mM |
| B3 | 3.48 ± 0.27 × 10^−4 mM |
| B4 | 3.18 ± 0.05 × 10^−4 mM |
| B5 | 8.49 ± 0.30 × 10^−4 mM |
| B6 | 1.03 ± 0.04 × 10^−4 mM |
| B7 | 5.94 ± 0.14 × 10^−4 mM |
